Measurements published in patent US20190153112A1 (IMMUTEP S A S, published 2019).

Columns and labels:
[1] = molecular target: IMP321 (recombinant soluble human LAG-3Ig fusion protein) (human) (UniProt P18627); test: cell-based or functional assay
[2] = molecular target: human LAG-3 protein (Lymphocyte activation gene-3) on the cell surface (human) (UniProt P18627); test: flow cytometry on LAG-3-transfected CHO cells; antibody 1 ng/ml
[3] = molecular target: human LAG-3 protein (Lymphocyte activation gene-3) on the cell surface (human) (UniProt P18627); test: flow cytometry on LAG-3-transfected CHO cells; antibody 20 ng/ml
[4] = molecular target: human LAG-3 protein (Lymphocyte activation gene-3) on the cell surface (human) (UniProt P18627); test: flow cytometry on LAG-3-transfected CHO cells; antibody 0.4 ng/ml
[5] = molecular target: human LAG-3 protein (Lymphocyte activation gene-3) on the cell surface (human) (UniProt P18627); test: flow cytometry on LAG-3-transfected CHO cells; antibody 100 ng/ml
[6] = molecular target: human LAG-3 protein (Lymphocyte activation gene-3) on the cell surface (human) (UniProt P18627); test: flow cytometry on LAG-3-transfected CHO cells; antibody 2000 ng/ml
[7] = molecular target: human LAG-3 protein (Lymphocyte activation gene-3) on the cell surface (human) (UniProt P18627); test: flow cytometry on LAG-3-transfected CHO cells; antibody 10000 ng/ml
[8] = molecular target: IMP321 (recombinant soluble human LAG-3Ig fusion protein) (human) (UniProt P18627); test: Biacore, LAG-3Ig on the chip and 17B4 antibody in the running buffer
[9] = molecular target: human LAG-3 protein (Lymphocyte activation gene-3) on the cell surface (human) (UniProt P18627); test: flow cytometry on CD4+ cells of SEB-stimulated PBMCs, mean of three donors
[10] = molecular target: human LAG-3 protein (Lymphocyte activation gene-3) on the cell surface (human) (UniProt P18627); test: flow cytometry on CD8+ cells of SEB-stimulated PBMCs, mean of three donors
[11] = molecular target: human LAG-3 protein (Lymphocyte activation gene-3) on the cell surface (human) (UniProt P18627); test: flow cytometry on CD4+ cells of SEB-stimulated PBMCs (Donor 1), from Table 13
[12] = molecular target: human LAG-3 protein (Lymphocyte activation gene-3) on the cell surface (human) (UniProt P18627); test: flow cytometry on CD4+ cells of SEB-stimulated PBMCs (Donor 1); antibody 7 ng/ml
[13] = molecular target: human LAG-3 protein (Lymphocyte activation gene-3) on the cell surface (human) (UniProt P18627); test: flow cytometry on CD8+ cells of SEB-stimulated PBMCs (Donor 1); antibody 29 ng/ml
[14] = molecular target: human LAG-3 protein (Lymphocyte activation gene-3) on the cell surface (human) (UniProt P18627); test: flow cytometry on CD4+ cells of SEB-stimulated PBMCs (Donor 1); antibody 1.6 ng/ml
[15] = molecular target: human LAG-3 protein (Lymphocyte activation gene-3) on the cell surface (human) (UniProt P18627); test: flow cytometry on CD4+ cells of SEB-stimulated PBMCs (Donor 1); antibody 541 ng/ml
[16] = molecular target: human LAG-3 protein (Lymphocyte activation gene-3) on the cell surface (human) (UniProt P18627); test: flow cytometry on CD8+ cells of SEB-stimulated PBMCs (Donor 1); antibody 0.4 ng/ml
[17] = molecular target: human LAG-3 protein (Lymphocyte activation gene-3) on the cell surface (human) (UniProt P18627); test: flow cytometry on CD8+ cells of SEB-stimulated PBMCs (Donor 1); antibody 126 ng/ml
[18] = molecular target: human LAG-3 protein (Lymphocyte activation gene-3) on the cell surface (human) (UniProt P18627); test: flow cytometry on CD8+ cells of SEB-stimulated PBMCs (Donor 1); antibody 541 ng/ml
[19] = molecular target: human LAG-3 protein (Lymphocyte activation gene-3) on the cell surface (human) (UniProt P18627); test: flow cytometry on CD8+ cells of SEB-stimulated PBMCs (Donor 1); antibody 2326 ng/ml
[20] = molecular target: human LAG-3 protein (Lymphocyte activation gene-3) on the cell surface (human) (UniProt P18627); test: flow cytometry on LAG-3-expressing CHO cells, mean of four independent experiments
[21] = molecular target: human LAG-3 protein (Lymphocyte activation gene-3) on the cell surface (human) (UniProt P18627); test: flow cytometry on CD4+ cells of SEB-stimulated PBMCs (Donor 1); antibody 10000 ng/ml
[22] = molecular target: human LAG-3 protein (Lymphocyte activation gene-3) on the cell surface (human) (UniProt P18627); test: flow cytometry on CD8+ cells of SEB-stimulated PBMCs (Donor 1); antibody 10000 ng/ml
[23] = molecular target: human LAG-3 protein (Lymphocyte activation gene-3) on the cell surface (human) (UniProt P18627); test: flow cytometry on LAG-3-transfected CHO cells; antibody 0 ng/ml (no-antibody background)
[24] = molecular target: human LAG-3 protein (Lymphocyte activation gene-3) on the cell surface (human) (UniProt P18627); test: flow cytometry on CD8+ cells of SEB-stimulated PBMCs (Donor 1); antibody 0 ng/ml (no-antibody background)
[25] = molecular target: IMP321 (recombinant soluble human LAG-3Ig fusion protein) (human) (UniProt P18627); test: FACS, LAG-3Ig-Alexa 488 (1 µg/ml) with antibody 0 ng/ml (no-antibody value), bound to Raji (MHC class II+) cells
[26] = molecular target: IMP321 (recombinant soluble human LAG-3Ig fusion protein) (human) (UniProt P18627); test: FACS, LAG-3Ig-Alexa 488 (1 µg/ml) pre-incubated with antibody 990 ng/ml, then bound to Raji (MHC class II+) cells
[27] = molecular target: IMP321 (recombinant soluble human LAG-3Ig fusion protein) (human) (UniProt P18627); test: FACS, LAG-3Ig-Alexa 488 (1 µg/ml) pre-incubated with antibody 3300 ng/ml, then bound to Raji (MHC class II+) cells
[28] = molecular target: IMP321 (recombinant soluble human LAG-3Ig fusion protein) (human) (UniProt P18627); test: FACS, LAG-3Ig-Alexa 488 (1 µg/ml) pre-incubated with antibody 11000 ng/ml, then bound to Raji (MHC class II+) cells

Chain of human LAG-3 protein (Lymphocyte activation gene-3) on the cell surface (human) (P18627 other isoform, or with tags, fused parts or gaps): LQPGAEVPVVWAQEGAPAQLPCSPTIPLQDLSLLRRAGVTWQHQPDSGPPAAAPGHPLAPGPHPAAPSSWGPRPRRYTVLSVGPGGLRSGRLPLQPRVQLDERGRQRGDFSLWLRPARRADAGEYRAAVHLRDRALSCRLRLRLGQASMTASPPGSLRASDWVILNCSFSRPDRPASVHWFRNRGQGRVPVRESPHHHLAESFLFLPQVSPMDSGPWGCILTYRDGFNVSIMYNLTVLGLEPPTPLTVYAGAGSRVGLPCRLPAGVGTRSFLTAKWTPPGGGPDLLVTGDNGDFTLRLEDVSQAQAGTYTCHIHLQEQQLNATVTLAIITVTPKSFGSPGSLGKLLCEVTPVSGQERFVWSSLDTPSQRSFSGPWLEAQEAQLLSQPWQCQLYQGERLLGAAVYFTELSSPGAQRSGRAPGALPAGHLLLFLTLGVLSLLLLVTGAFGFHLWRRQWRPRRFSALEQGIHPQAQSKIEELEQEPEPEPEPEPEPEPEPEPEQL
Chain of IMP321 (recombinant soluble human LAG-3Ig fusion protein) (human) (P18627 23-450): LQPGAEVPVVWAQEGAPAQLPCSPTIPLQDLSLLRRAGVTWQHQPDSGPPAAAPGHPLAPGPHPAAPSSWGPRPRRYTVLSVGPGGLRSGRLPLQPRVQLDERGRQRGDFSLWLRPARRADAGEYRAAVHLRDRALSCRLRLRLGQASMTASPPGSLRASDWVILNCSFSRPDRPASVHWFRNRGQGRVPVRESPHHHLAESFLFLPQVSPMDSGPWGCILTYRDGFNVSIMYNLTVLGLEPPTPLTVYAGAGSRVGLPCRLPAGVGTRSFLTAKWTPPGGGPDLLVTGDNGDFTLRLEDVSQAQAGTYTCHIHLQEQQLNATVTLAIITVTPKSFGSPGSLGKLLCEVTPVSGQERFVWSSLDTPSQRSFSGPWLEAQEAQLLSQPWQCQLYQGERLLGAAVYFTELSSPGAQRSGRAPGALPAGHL

Question: For “antagonistic anti-LAG-3 mouse monoclonal antibody 17B4”, which [CCL4] in THP-1 monocytic cells supernatant; IMP321 20 ng/ml pre-incubated with antibody 2 ng/ml [1] is on record?
Answer: 1960 pg/mL

Question: What about the [CCL4] in THP-1 monocytic cells supernatant; IMP321 20 ng/ml pre-incubated with antibody 20 ng/ml [1] of the same substance?
Answer: 1550 pg/mL

Question: And the [CCL4] in THP-1 monocytic cells supernatant; IMP321 20 ng/ml pre-incubated with antibody 200 ng/ml [1]?
Answer: 860 pg/mL

Question: What about the [CCL4] in THP-1 monocytic cells supernatant; IMP321 20 ng/ml pre-incubated with antibody 2000 ng/ml [1] of the same substance?
Answer: 947 pg/mL

Question: And the [CCL4] in THP-1 monocytic cells supernatant; IMP321 20 ng/ml pre-incubated with antibody 20000 ng/ml [1]?
Answer: 860 pg/mL

Question: What about the [CCL4] in THP-1 monocytic cells supernatant; IMP321 20 ng/ml, antibody 0 ng/ml (no-antibody value) [1] of the same substance?
Answer: 2110 pg/mL

Question: And the MFI [2]?
Answer: 247 MFI

Question: What about the MFI [3] of the same substance?
Answer: 1380 MFI

Question: And the MFI [4]?
Answer: 179 MFI

Question: What about the MFI [5] of the same substance?
Answer: 3170 MFI

Question: And the MFI [6]?
Answer: 5480 MFI

Question: And the MFI [7]?
Answer: 6090 MFI

Question: And the Kd [8]?
Answer: 0.121 nM

Question: And the koff [8]?
Answer: 0.000132 s⁻¹

Question: And the kon [8]?
Answer: 1.09e+06 M⁻¹ s⁻¹

Question: And the EC50 [9]?
Answer: 0.8 nM

Question: What about the EC50 [10] of the same substance?
Answer: 1 nM

Question: And the EC50 [11]?
Answer: 0.5 nM

Question: And the MFI [12]?
Answer: 324 MFI

Question: What about the MFI [13] of the same substance?
Answer: 1400 MFI

Question: What about the MFI [14] of the same substance?
Answer: 192 MFI

Question: What about the MFI [15] of the same substance?
Answer: 1750 MFI

Question: And the MFI [16]?
Answer: 195 MFI

Question: And the MFI [17]?
Answer: 2840 MFI

Question: What about the MFI [18] of the same substance?
Answer: 4090 MFI

Question: And the MFI [19]?
Answer: 4830 MFI

Question: And the EC50 [20]?
Answer: 0.7 nM

Question: What about the MFI [21] of the same substance?
Answer: 1600 MFI

Question: What about the MFI [22] of the same substance?
Answer: 5140 MFI

Question: What about the MFI [23] of the same substance?
Answer: 156 MFI

Question: And the MFI [24]?
Answer: 112 MFI

Question: What about the MFI of sLAG-3Ig-Alexa 488 [25] of the same substance?
Answer: 284 MFI

Question: And the MFI of sLAG-3Ig-Alexa 488 [26]?
Answer: 35 MFI

Question: What about the MFI of sLAG-3Ig-Alexa 488 [27] of the same substance?
Answer: 13 MFI

Question: What about the MFI of sLAG-3Ig-Alexa 488 [28] of the same substance?
Answer: -11 MFI
